{"source": "paper PMC8894376", "about": "(Nature Communications, 2022)", "binders": {"B1": {"name": "PrP 23–144 (Y145Stop) (domain or fragment)", "chain": "KKRPKPGGWNTGGSRYPGQGSPGGNRYPPQGGGGWGQPHGGGWGQPHGGGWGQPHGGGWGQPHGGGWGQGGGTHSQWNKPSKPKTNMKHMAGAAAAGAVVGGLGGYMLGSAMSRPIIHFGSD"}}, "biological_target": "Recombinant full-length human α-synuclein (1–140) (human, UniProt P37840 1-140)", "test": "turbidity of phase separation (absorbance at 350 nm)", "settings": "both partners purified"}
{"binder": "B1", "values": [{"measurement": "binding result", "result": "binds"}]}
